Assay results taken from patent CN112125974A (BIORAY LABORATORIES INC, dated 2020).

T1: BCMA on BCMA+ target cells (NCI-H929; K562-BCMA) (human, UniProt Q02223 1-184)
T1 sequence (looked up): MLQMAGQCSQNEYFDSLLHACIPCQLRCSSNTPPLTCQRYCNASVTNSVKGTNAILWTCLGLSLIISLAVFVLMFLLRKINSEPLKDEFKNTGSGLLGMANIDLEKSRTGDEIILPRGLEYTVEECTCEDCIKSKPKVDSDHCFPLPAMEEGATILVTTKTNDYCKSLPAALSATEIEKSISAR


What was measured:
人BCMA(hBCMA)蛋白 (human) = 人BCMA(hBCMA)蛋白 (human) (UniProt Q02223); test: phage ELISA, 0.5 μg/ml hBCMA coated, phage supernatant, anti-M13-HRP
[1] = target: T1, BCMA on BCMA+ target cells (NCI-H929; …); test: cell-based or functional assay
biotin-BCMA抗原 (human) = biotin-BCMA抗原 (human) (UniProt Q02223); test: flow cytometry, T cells 72 h after infection, 0.2 μg/ml biotin-BCMA, APC-Streptavidin

| OD450 (人BCMA(hBCMA)蛋白 (human)) [OD450] | proportion of target cells K562-BCMA in total cells, co-culture E:T 7:1, 0 h [1] [%] | proportion of target cells K562-BCMA in total cells, co-culture E:T 7:1, 48 h [1] [%] | proportion of target cells NCI-H929 in total cells, co-culture E:T 5:1, end [1] [%] | proportion of target cells NCI-H929 in total cells, co-culture E:T 5:1, start [1] [%] | CAR-BCMA阳性率 (percent of T cells stained by biotin-BCMA) (biotin-BCMA抗原 (human)) [%] | Binder |
| --- | --- | --- | --- | --- | --- | --- |
| > 1.5 | – | – | – | – | – | 抗BCMA单链抗体2(命名为抗体2077) (scFv, V domains shown) VH: QVQLQQSGPGLVKPSQTLSLTCAISGDSVSSNSAAWNWIRQSPSRGLEWLGRTYYRSKWYNDYAVSVKSRITINPDTSKNQFSLQLNSVTPEDTAVYYCARLAYEVRSTDWYFDLWGRGTLVTVSS VL: QPVLTQPPSVSEAPRQRVTISCSGSSSNIGNNAVNWYQQLPGKAPKLLIYYDDLLPSGVSDRFSGSKSGTSASLAISGLQSEDEADYYCAAWDDSLNGWVFGGGTKLTVL |
| – | 8.69 | 6.1 | 0.435 | 15.4 | 45.1 | 2073嵌合抗原受体 (CAR-BCMA-2073, on T cells CAR-BCMA-2073-T) (other) DIVMTQSPDSLAVSLGERATINCKSSQNVLYSSNNRNYLAWYQQKPGQPPKLLIYWASTRESGVPDRFSGSGSGTDFTLTISSLQAEDVAVYYCQQYYGSVVTFGGGTKVEIKGSTSGSGKPGSGEGSTKGQVQLQQSGPGLVKPSQTLSLTCAISGDSVSSNSAAWNWIRQSPSRGLEWLGRTYYRSKWYNDYALSVKSRITINPDTSKNQFSLQLNSVTPEDTAVYYCARGASSFDYWGQGTLVTVSSTTTPAPRPPTPAPTIASQPLSLRPEACRPAAGGAVHTRGLDFACDIYIWAPLAGTCGVLLLSLVITLYCKRGRKKLLYIFKQPFMRPVQTTQEEDGCSCRFPEEEEGGCELRVKFSRSADAPAYKQGQNQLYNELNLGRREEYDVLDKRRGRDPEMGGKPRRKNPQEGLYNELQKDKMAEAYSEIGMKGERRRGKGHDGLYQGLSTATKDTYDALHMQALPPR |
| > 1.5 | – | – | – | – | – | 抗BCMA单链抗体4(命名为抗体2082) (scFv, V domains shown) VH: QVQLQQSGPALVKPSQTLSLTCVISGDSVSSNSASWTWIRQSPSRGLEWLGRTYRRADRWYYDYALSLNSRLTINPDTSKNHFALHLTSVTPEDTAVYYCSREYWGGSFDVWGQGTTVTVSS VL: QPVLTQPASVSGSPGQSITISCTGTSSDVGGYDYVSWYQQHPGKAPKLMLYEVNNRPSGVSNRFSGSKSGNTASLTISGLQAEDEGAYYCSSYTSSNTHVVFGGGTQLTVL |
| – | 9.28 | 8.69 | 6.63 | 11.3 | 22.3 | 2079嵌合抗原受体 (CAR-BCMA-2079, on T cells CAR-BCMA-2079-T) (other) QSALTQPASVSGSPGQSITMSCTGTSSDVGGYKYVSWYQQHPGKAPQLMIHDVRERPSGVSNRFSGSKSGNTASLTISGLQAEDEADYYCSSFTNNSTFVFGTGTKVTVLGSTSGSGKPGSGEGSTKGQVQLQQSGPGLVKPSQTLSLTCAISGDSVSSNSAAWNWIRQSPSRGLEWLGRTYYRSTWYNDYAVSVKSRITINPDTSKNQFSLQLNSVTPEDTAVYYCARGTGTLDYWGQGTLVTVSSTTTPAPRPPTPAPTIASQPLSLRPEACRPAAGGAVHTRGLDFACDIYIWAPLAGTCGVLLLSLVITLYCKRGRKKLLYIFKQPFMRPVQTTQEEDGCSCRFPEEEEGGCELRVKFSRSADAPAYKQGQNQLYNELNLGRREEYDVLDKRRGRDPEMGGKPRRKNPQEGLYNELQKDKMAEAYSEIGMKGERRRGKGHDGLYQGLSTATKDTYDALHMQALPPR |
| > 1.5 | – | – | – | – | – | 抗BCMA单链抗体3(命名为抗体2079) (scFv, V domains shown) VH: QVQLQQSGPGLVKPSQTLSLTCAISGDSVSSNSAAWNWIRQSPSRGLEWLGRTYYRSTWYNDYAVSVKSRITINPDTSKNQFSLQLNSVTPEDTAVYYCARGTGTLDYWGQGTLVTVSS VL: QSALTQPASVSGSPGQSITMSCTGTSSDVGGYKYVSWYQQHPGKAPQLMIHDVRERPSGVSNRFSGSKSGNTASLTISGLQAEDEADYYCSSFTNNSTFVFGTGTKVTVL |
